Results as given in PMC4283936.

Biological target: PhoP (Mycobacterium tuberculosis, UniProt P71814 1-247)
Assay: ITC

Binder	Kd [nM]	binding result
Rv2633c (dsDNA) DNA 1: TGATTCACAGCTACCTCACATTAATGGG DNA 2: CCCATTAATGTGAGGTAGCTGTGAATCA	37 ± 3.7	–
icl -350 (dsDNA) DNA 1: GGTTGGTCGACCGCGCTGTTACAACGCTCAC DNA 2: GTGAGCGTTGTAACAGCGCGGTCGACCAACC	–	no binding
papA4 (dsDNA) DNA 1: AGTATCACTGCCCGATCACCGGTCGCCC DNA 2: GGGCGACCGGTGATCGGGCAGTGATACT	–	no binding
devR -155 (dsDNA) DNA 1: GTGCGTGCCGTCATCTGGCCGCCAACGCAA DNA 2: TTGCGTTGGCGGCCAGATGACGGCACGCAC	–	no binding
phoP -55 (dsDNA) DNA 1: AGACTACTGGCAACGAGCTTTCAGGAATTACAC DNA 2: GTGTAATTCCTGAAAGCTCGTTGCCAGTAGTCT	104 ± 10	–
phoP -42 (dsDNA) DNA 1: ACGAGCTTTCAGGAATTACACAATGACTGTG DNA 2: CACAGTCATTGTGTAATTCCTGAAAGCTCGT	–	no binding
icl -301 (dsDNA) DNA 1: CCCAAGGCAGTCGCCTCGCTGTTCAATCTGT DNA 2: ACAGATTGAACAGCGAGGCGACTGCCTTGGG	–	no binding
wbbL2 (dsDNA) DNA 1: TGGATCGCTGCCGATACACCGCCGATTT DNA 2: AAATCGGCGGTGTATCGGCAGCGATCCA	–	no binding
Rv1639c (dsDNA) DNA 1: CGGATCACAGGAAACCCCCAACAAATCA DNA 2: TGATTTGTTGGGGGTTTCCTGTGATCCG	198 ± 12	–
Rv0964c (dsDNA) DNA 1: GCGCGCACGGCACACGCACCGCATCGGC DNA 2: GCCGATGCGGTGCGTGTGCCGTGCGCGC	4350 ± 189	–
devR -116 (dsDNA) DNA 1: CAGCTGTTCGTCGCGGACTCACACTCCGCGCAC DNA 2: GTGCGCGGAGTGTGAGTCCGCGACGAACAGCTG	–	no binding
pks3 -236 (dsDNA) DNA 1: CGACGTCTGGTAGCGGCATGGCAACGGCCTGTG DNA 2: CACAGGCCGTTGCCATGCCGCTACCAGACGTCG	130 ± 11	–
Rv0520 (dsDNA) DNA 1: GCCCGCACAGCCACGCCGTAGCACCGGC DNA 2: GCCGGTGCTACGGCGTGGCTGTGCGGGC	472 ± 20	–
cfp2 (dsDNA) DNA 1: TCGCTCACAGCTACGACACAGACTTGCC DNA 2: GGCAAGTCTGTGTCGTAGCTGTGAGCGA	21.4 ± 1.6	–
aroG (dsDNA) DNA 1: TTCGTCTCATCACGTCCACAGACGATGC DNA 2: GCATCGTCTGTGGACGTGATGAGACGAA	1160 ± 41	–
Rv3881c (dsDNA) DNA 1: ATGGTCACAGTCGGGCCACAGTTCGAG DNA 2: CTCGAACTGTGGCCCGACTGTGACCAT	714 ± 51	–
icl -343 (dsDNA) DNA 1: GACCGCGCTGTTACAACGCTCACATATGTGG DNA 2: CCACATATGTGAGCGTTGTAACAGCGCGGTC	–	no binding
icl -400 (dsDNA) DNA 1: TCATCTCCCACGTTCACCCGGCTGGTTCG DNA 2: CGAACCAGCCGGGTGAACGTGGGAGATGA	–	no binding
fas (dsDNA) DNA 1: CGGCGTAGAGCGAATTCCCAGCATAACG DNA 2: CGTTATGCTGGGAATTCGCTCTACGCCG	144 ± 6	–
Rv3877 (dsDNA) DNA 1: CTCGGCGCAGCGCGCGCTCAGCGACGCC DNA 2: GGCGTCGCTGAGCGCGCGCTGCGCCGAG	1150 ± 66	–
sirA (dsDNA) DNA 1: CGTCTCCCAGCGGATTCCCGGGTCGGCC DNA 2: GGCCGACCCGGGAATCCGCTGGGAGACG	332 ± 17	–
Rv3143 (dsDNA) DNA 1: AACCGCACAGCCCTCTAACCACTGCTCG DNA 2: CGAGCAGTGGTTAGAGGGCTGTGCGGTT	–	no binding
Rv2010 (dsDNA) DNA 1: GAACTCGTGGCCGCCGCACAGCGGATGT DNA 2: ACATCCGCTGTGCGGCGGCCACGAGTTC	637 ± 16	–
nuoA -63 (dsDNA) DNA 1: GTCACGGCAGCCCGGTCACCGCCCGGCC DNA 2: GGCCGGGCGGTGACCGGGCTGCCGTGAC	–	no binding
PE8 (dsDNA) DNA 1: CAGATCACACCGCCATGTCAGCCGCCAA DNA 2: TTGGCGGCTGACATGGCGGTGTGATCTG	–	no binding

Binder	Kd [nM]	binding result
ptrBa -244 (dsDNA) DNA 1: ATCTTCACACCGGACTCGTCGCGGTACT DNA 2: AGTACCGCGACGAGTCCGGTGTGAAGAT	–	no binding
cdh (dsDNA) DNA 1: GCGAGCAGGGCTGCCGCACAGCGATCTT DNA 2: AAGATCGCTGTGCGGCAGCCCTGCTCGC	935 ± 52	–
phoP -64 (dsDNA) DNA 1: GACTGTTAGCAGACTACTGGCAACGAGCTTTC DNA 2: GAAAGCTCGTTGCCAGTAGTCTGCTAACAGTC	–	no binding
pks3 -653 (dsDNA) DNA 1: GGCGGCCCACTGCGCCTGCACCGCCGTGTTGG DNA 2: CCAACACGGCGGTGCAGGCGCAGTGGGCCGCC	–	no binding
PPE19 (dsDNA) DNA 1: CCGTTCTCCGGACAATCACGGCCCGACC DNA 2: GGTCGGGCCGTGATTGTCCGGAGAACGG	–	no binding
ptrBa -162 (dsDNA) DNA 1: TTGTCCGCAGCTGGCTCACCGGCTCCGA DNA 2: TCGGAGCCGGTGAGCCAGCTGCGGACAA	980 ± 77	–
Rv1217c (dsDNA) DNA 1: GAGGTCGCAGCCGAGCAACAGGTGGCAA DNA 2: TTGCCACCTGTTGCTCGGCTGCGACCTC	588 ± 17	–
pks2 (dsDNA) DNA 1: AAAGACACAGCTACATCGAAGGATTGCT DNA 2: AGCAATCCTTCGATGTAGCTGTGTCTTT	154 ± 12	–
Rv3312a (dsDNA) DNA 1: TGGGTCACAGCGAGTAATCAGCAAGTTC DNA 2: GAACTTGCTGATTACTCGCTGTGACCCA	160 ± 8	–
icl +20 (dsDNA) DNA 1: ACCCCGAAGAGCGCGGAGCAGATCCAGCAGG DNA 2: CCTGCTGGATCTGCTCCGCGCTCTTCGGGGT	–	no binding
Rv1517 (dsDNA) DNA 1: CATTTTTCAGCAATTTCTCAGTAACGCT DNA 2: AGCGTTACTGAGAAATTGCTGAAAAATG	–	no binding
PPE50 (dsDNA) DNA 1: CTTTTCACAGCAAAGTCCCAGAAATGGC DNA 2: GCCATTTCTGGGACTTTGCTGTGAAAAG	45.7 ± 1.7	–
fbpA (dsDNA) DNA 1: ATACTGACAGCAAGATCACAATTGAGCC DNA 2: GGCTCAATTGTGATCTTGCTGTCAGTAT	56.5 ± 2.6	–
lipF -572 (dsDNA) DNA 1: AGACGTACAGCAAACTCCCAGTCATACA DNA 2: TGTATGACTGGGAGTTTGCTGTACGTCT	115 ± 8	–
devR -146 (dsDNA) DNA 1: CGTCATCTGGCCGCCAACGCAAAGCCGGGTCA DNA 2: TGACCCGGCTTTGCGTTGGCGGCCAGATGACG	–	no binding
hsp (dsDNA) DNA 1: CCGGACACAGCTAACTCACAACGAAGCA DNA 2: TGCTTCGTTGTGAGTTAGCTGTGTCCGG	51.5 ± 4.3	–
fadD21 (dsDNA) DNA 1: CCTGTTTCAGCACATGCACAGCATTGCA DNA 2: TGCAATGCTGTGCATGTGCTGAAACAGG	50.3 ± 4.3	–
cyp123 (dsDNA) DNA 1: AGATCCACCGCCGCATCACATCGGCGAT DNA 2: ATCGCCGATGTGATGCGGCGGTGGATCT	–	no binding
lipF -214 (dsDNA) DNA 1: GGGCTCCCATCGAGATCACCGAAAGCGG DNA 2: CCGCTTTCGGTGATCTCGATGGGAGCCC	–	no binding
espA -215 (dsDNA) DNA 1: CGCATTGTCGCAGCGCAGTTGCAGGAGGGCAA DNA 2: TTGCCCTCCTGCAACTGCGCTGCGACAATGCG	1590 ± 50	–
Rv2331 (dsDNA) DNA 1: GTCCTCGCAGCAAGAAAACAGCGAAAGC DNA 2: GCTTTCGCTGTTTTCTTGCTGCGAGGAC	130 ± 6.1	–
cadI (dsDNA) DNA 1: CGGTACACAGCGCTTGCAGGGCTTCAGG DNA 2: CCTGAAGCCCTGCAAGCGCTGTGTACCG	403 ± 20	–
umaA (dsDNA) DNA 1: TGACGCAAGGCGAGATCACAGACCGAGA DNA 2: TCTCGGTCTGTGATCTCGCCTTGCGTCA	1200 ± 58	–
nuoA -52 (dsDNA) DNA 1: CCGGTCACCGCCCGGCCGCCGCGCTGGC DNA 2: GCCAGCGCGGCGGCCGGGCGGTGACCGG	–	no binding
